Laboratory results taken from US7732178B2, “Laccase enzymes and their uses” (AB Enzymes Oy, priority 2004, dated 2010).

B1: CtLcc1: Chaetomium thermophilum ALKO 4265 laccase, SEQ ID NO: 47, produced in Trichoderma reesei (protein)
chain: MKFLTYATALLGALTAVVGAIPTRSGTKKKYIRDGPGPCHTPSNRACWAPGFDINTDYEVNTPNTGVTRNYTLTLTEEDNWTGPDGVVKEKIMLVNGKTLGPTIEANWGDWIEVKVINNLLTNGTSIHWHGIHQKGSNLHDGANGVTECPIPPNGGQRTYRFRAQQYGTSWYHSHFSAQYGNGIVGPIVIHGPASLPYDIDLGPFPLTDYYYKSADELVRHTQNNGPPFSDNVLFNGTGVHPQTGHGQYAKVTLTPGKRHRLRIINMSTENHFQVSLVGHQFTVIAADMVPVHSYTTDSLFLAVGQRYDVTIDASQTPGNYWFNVTFGGGFACGGSFNPNPAAIFHYEGAPDALPTDPGVPPRDHNCLDTLDLVPVVPRNVQVNQFVKKPENTLPVELSLGGTPLFVWKVNGSAIDVDWGNPVLQYVMDRNTSYRQADNIVEVNGVNQWTYWLIENDPNGAFSLPHPMHLHGHDFLIVGRSPDVPPGSNQRYNFDPATDIYRLRGQNPTRRDVAMLPAGGWLLLAFLTDNPGAWLFHCHIAWHVSGGLSVDFLERPNDLRNSILQHDKDEFNRVCNEWRTYWPNSPHPKIDSGLKHRWVEESEWLVR
modifications: Chaetomium thermophilum ALKO4265; (1)..(607) Deduced amino acid sequence of Chaetomium thermophilum ALKO4265 CtLcc1
B2: TaLcc2: Thielavia arenaria ALKO 4197 laccase, SEQ ID NO: 41, produced in Trichoderma reesei (protein)
chain: MLTETLKSRNMLQSILALLATALGSSAFAIPELPEVSLQPRQACENTATSRQCWGDLSIDTNYYEVLPSTGRPPQEYWLSVVEGPCAPDGYNRTCMTFNGTVPGPTLFADWGDELVIHVTNNMVNNGTAIHWHGIRMLNNTLNDGVPGVTQCAIAPGESMTYRFNVTQYGSTWYHSHFSLQYAEGLFGGMILRGPSTANWDEDLGVLFLQDWSHVEAFTRWHEAKAGFPPSLDGGLINGTNTFDCSTLSPTDPKCTGNGKKFETVFEPGKKYLIRLINVAIDGVFQFSIDGHSLTVIATDLVPIVPYTTDSVQITIGQRYDIIVEANATPGNYWMRADWVTACVTNDHPEHMTGIVRYDASSIDPPTSESNVTKTSSCLGEPNEKTIPHLSLDVTNIGGTNVEELSFDTTSGDYFQWTLNTSSLVLDWGNPTMARIFNGDAIFPTEYNVVAVNKTGTGPEWTVLVIQDQSNLPIAHPIHLHGHDFWVLAAEEGVFNGNISSFNTRNPARRDVATLPGRGYLAIAFQIDNPGTWLTHCHIAWHASQGLSLEFVESQSEIVTDEVSRGVFNDVCASWRAHDPLWEQEDSGI
modifications: Thielavia arenaria ALKO4197; (1)..(589) Deduced amino acid sequence of Thielavia arenaria ALKO4197 TaLacc2

How the values were obtained:
[1] = Specific activity towards ABTS; format: biochemical; conditions: 25 mM succinate buffer pH 4.5, 25° C.
Protocol: The activity assay was carried out in accordance with the method developed by Niku-Paavola et al. (1988). The sample was diluted with 0.025 M succinate buffer, pH 4.5. […] The activity is expressed as nano katals.
(§1) Specific activities of the purified T. arenaria and C. thermophilum laccases were determined towards different laccase substrates.

[2] = Isoelectric focusing (pI); format: physicochemical; conditions: pH range 3-9
Procedure, shortened: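 Purified Thielavia arenaria and Chaetomium thermophilum laccases resolved by isoelectric focusing over pH 3-9. pI read from focused band position.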

[3] = Stain removal, grass soiling; design: key to Grass L* / Grass a* / Grass b*: CIE L*a*b* color coordinates from reflectance; conditions: for Grass L* / Grass a* / Grass b*: 60 min, pH 6; for removal of grass soiling with the mediator: CtLcc1 at 60° C., TaLcc2 at 50° C.
Protocol: Laccases CtLcc1, TaLcc2, TaLcc4 and Denilite II Base (Example 7) were tested for their ability to remove stains. The following artificially soiled test cloths were used: grass soiling (Art.164, EMPA Testmaterialen, Germany), tea soiling (Art. 167, EMPA Testmaterialen, Germany). The fabric was cut in 5.8×5.8 cm swatches. Laccase treatments were performed in LP-2 Launder Ometer as follows. About 5 g of soiled fabrics were loaded into 1.2 liter containers containing 150 ml Mc Ilvaine's citrate phosphate buffer pH 6 and the containers were temperated. Enzyme with or without the mediator (methyl syringate, DeniLite II Assist, Novozymes) was added as laccase activity units (Example 7). Enzyme was dosed 200 nkat/g and the mediator 10 mg/g on the weight of fabric, except at 40° C. dosages of 20 nkat/g and 2 mg/g were also used. The Launder Ometer was run at 40, 50 or 60° C. and pH 6 for 60 min. After that the swatches were carefully rinsed under running water and in shake flasks containing warm water and dried in the air.
The stain removal effect was evaluated by measuring the colour as reflectance values using L*a*b* color space coordinates (Example 7). The colour of the swatches was measured before and after the laccase treatment.

[4] = Specific activity towards syringaldazine; format: biochemical; conditions: 25 mM MES buffer, pH 5.5
Protocol: as §1

[5] = Denim bleaching at different pH values; design: key to After laccase treatment L* / After laccase treatment b* / Increase of L*: CIE L*a*b* colour coordinates (illuminant D65), Minolta reflectance; conditions: for After laccase treatment L* / After laccase treatment b* / Increase of L*: face side of denim, 30 min, 50° C.; for decolorization of indigo dye of denim compared to DeniLite II Base: pH values 6 and 7, with mediator
Protocol: Lee Cooper jeans (MASI Company Oy, Finland) that were desized and treated with neutral ECOSTONE® cellulase were used as test material. Laccase treatments were performed in LP-2 Launder Ometer as follows. About 10 g of denim swatches (15×14 cm) were loaded into 1.2 liter containers containing 200 ml Mc Ilvaine's citrate phosphate buffer pH 5, 6 or 7 and the containers were temperated. Enzyme with or without the mediator (methyl syringate, DeniLite II Assist, Novozymes) was added as laccase activity units. Enzyme was dosed 200 nkat/g and the mediator 10 mg/g on the weight of fabric. […] The Launder Ometer was run at 50° C. for 30 min and after that the temperature in Launder was raised to 80° C. for 10 min. The swatches were carefully rinsed with warm water, dried half-dry in a tumbler and after that air dried.
The bleaching effect was evaluated by measuring the colour as reflectance values with the Minolta Chromameter CM 1000 (Minolta Co.) using L*a*b* color space coordinates (illuminant D65). The colour from both sides of the swatches was measured before and after the laccase treatment. Each measurement was the average of several measurements.

[6] = Specific activity towards di-methoxy-phenol (DMP); format: biochemical; conditions: 25 mM MES buffer, pH 5.5
Protocol: as §1

[7] = 40° C., enzyme 20 nkat/g + mediator 2 mg/g (Mediator only: 0 nkat/g)
[8] = 40° C., enzyme 200 nkat/g + mediator 10 mg/g (Mediator only: 0 nkat/g)
[9] = 40° C., enzyme 200 nkat/g, mediator 0 mg/g
[10] = 60° C., enzyme 200 nkat/g + mediator 10 mg/g (Mediator only: 0 nkat/g)
[11] = 60° C., enzyme 200 nkat/g, mediator 0 mg/g
[12] = pH 5, enzyme 200 nkat/g without the mediator, or mediator 10 mg/g alone
[13] = pH 5, enzyme 200 nkat/g, mediator 10 mg/g
[14] = pH 6, enzyme 200 nkat/g without the mediator, or mediator 10 mg/g alone
[15] = pH 6, enzyme 200 nkat/g, mediator 10 mg/g
[16] = pH 7, enzyme 200 nkat/g without the mediator, or mediator 10 mg/g alone
[17] = pH 7, enzyme 200 nkat/g, mediator 10 mg/g
[18] = 40° C., enzyme 200 nkat/g + mediator 10 mg/g (Mediator only: 0 nkat/g), RF5571
[19] = 40° C., enzyme 200 nkat/g + mediator 10 mg/g (Mediator only: 0 nkat/g), RF5573
[20] = 50° C., enzyme 200 nkat/g + mediator 10 mg/g (Mediator only: 0 nkat/g)

Row | Molecule | Specific activity on ABTS [1] | pI [2] | Grass L* [3, 7] | Grass a* [3, 7] | Grass b* [3, 7] | Grass L* [3, 9] | Grass a* [3, 9] | Grass b* [3, 9] | removal of grass soiling with the mediator [3] | Specific activity on syringaldazin [4] | After laccase treatment L* [5, 12] | After laccase treatment b* [5, 12] | Increase of L* [5, 12] | After laccase treatment L* [5, 13] | After laccase treatment b* [5, 13] | Increase of L* [5, 13] | After laccase treatment L* [5, 14] | After laccase treatment b* [5, 14] | Increase of L* [5, 14] | After laccase treatment L* [5, 15] | other results
1 | B1 | 705 nkat/mg | 4.0-4.3 | 79.94 | −1.20 | 16.17 | 80.17 | −4.14 | 17.45 | effective | 400 nkat/mg | 28.88 | −18.65 | 0.46 | 35.07 | −18.38 | 5.91 | 28.83 | −18.53 | −0.13 | 40.08 | Grass L* [3, 8]: 79.74; Grass a* [3, 8]: 0.17; Grass b* [3, 8]: 16.48; Grass L* [3, 10]: 79.92; Grass a* [3, 10]: −1.15; Grass b* [3, 10]: 18.55; Grass L* [3, 11]: 79.04; Grass a* [3, 11]: −3.69; Grass b* [3, 11]: 18.12; After laccase treatment b* [5, 15]: −17.18; Increase of L* [5, 15]: 11.19; After laccase treatment L* [5, 16]: 29.32; After laccase treatment b* [5, 16]: −18.52; Increase of L* [5, 16]: 0.73; After laccase treatment L* [5, 17]: 36.69; After laccase treatment b* [5, 17]: −17.88; Increase of L* [5, 17]: 8.31; decolorization of indigo dye of denim compared to DeniLite II Base [5]: more efficient; Specific activity on DMP [6]: 290 nkat/mg
2 | B2 | 360 nkat/mg | 3.5 | 79.25 | −2.14 | 16.41 | 80.01 | −4.90 | 17.63 | effective | 120 nkat/mg | 30.11 | −18.63 | −0.02 | 33.68 | −17.91 | 5.39 | 29.17 | −18.51 | 0.30 | 39.01 | Grass L* [3, 18]: 79.24; Grass a* [3, 18]: −0.31; Grass b* [3, 18]: 16.72; Grass L* [3, 19]: 79.19; Grass a* [3, 19]: −0.26; Grass b* [3, 19]: 16.99; Grass L* [3, 20]: 79.50; Grass a* [3, 20]: −1.15; Grass b* [3, 20]: 17.94; After laccase treatment b* [5, 15]: −17.46; Increase of L* [5, 15]: 10.57; After laccase treatment L* [5, 16]: 28.24; After laccase treatment b* [5, 16]: −18.30; Increase of L* [5, 16]: 0.77; After laccase treatment L* [5, 17]: 35.85; After laccase treatment b* [5, 17]: −18.27; Increase of L* [5, 17]: 7.26; decolorization of indigo dye of denim compared to DeniLite II Base [5]: more efficient; Specific activity on DMP [6]: 75 nkat/mg
